The supplement of paper PMC9112550, “Optimization of the antimicrobial peptide Bac7 by deep mutational scanning” (BMC Biology, 2022)

Tested on: Escherichia coli TOP10
Assay: shrunken log2 fold change of peptide-encoding DNA abundance (4.5 h post-induction vs induction); higher = less antimicrobial activity (less host growth inhibition)
Conditions: time post-induction: 4.5 h; library: site-saturation at positions 5, 18, 19, 20
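Further: peptides expressed intracellularly from a pBAD plasmid library in pooled LB shake-flask culture, induced with 0.3% L-arabinose, DNA abundance read by NGS, three biological replicates, DESeq2 with apeglm shrinkage.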

Row | Sequence | shrunken log2 fold change
1 | RRIRFRPPRLPRPRPRPGRLPRP | 0.262
2 | RRIRFRPPRLPRPRPRPGSWPRP | 0.244
3 | RRIRFRPPRLPRPRPRPGTPPRP | 0.292
4 | RRIRFRPPRLPRPRPRPGWPPRP | 0.489
5 | RRIRFRPPRLPRPRPRPGWTPRP | -0.115
6 | RRIRFRPPRLPRPRPRPGYRPRP | -0.0212
7 | RRIRFRPPRLPRPRPRPHDIPRP | -0.0788
8 | RRIRFRPPRLPRPRPRPHFDPRP | -0.107
9 | RRIRFRPPRLPRPRPRPHHHPRP | -0.678
10 | RRIRFRPPRLPRPRPRPHHWPRP | -0.499
11 | RRIRFRPPRLPRPRPRPHHYPRP | -0.681
12 | RRIRFRPPRLPRPRPRPHKAPRP | 0.0324
13 | RRIRFRPPRLPRPRPRPHKGPRP | -0.0598
14 | RRIRFRPPRLPRPRPRPHKVPRP | -0.196
15 | RRIRFRPPRLPRPRPRPHLGPRP | 0.0424
16 | RRIRFRPPRLPRPRPRPHMMPRP | -0.283
17 | RRIRFRPPRLPRPRPRPHNGPRP | -0.0493
18 | RRIRFRPPRLPRPRPRPHNVPRP | 0.0631
19 | RRIRFRPPRLPRPRPRPHPRPRP | 0.5
20 | RRIRFRPPRLPRPRPRPHQDPRP | -0.0339
21 | RRIRFRPPRLPRPRPRPHRAPRP | -0.0573
22 | RRIRFRPPRLPRPRPRPHRSPRP | -0.222
23 | RRIRFRPPRLPRPRPRPHSKPRP | -0.327
24 | RRIRFRPPRLPRPRPRPHTGPRP | -0.411
25 | RRIRFRPPRLPRPRPRPHVYPRP | -0.0438

Row | Sequence | shrunken log2 fold change
26 | RRIRFRPPRLPRPRPRPHYQPRP | -0.0104
27 | RRIRFRPPRLPRPRPRPIAHPRP | -0.109
28 | RRIRFRPPRLPRPRPRPIALPRP | -0.222
29 | RRIRFRPPRLPRPRPRPIASPRP | -0.015
30 | RRIRFRPPRLPRPRPRPIEYPRP | -0.00801
31 | RRIRFRPPRLPRPRPRPIFGPRP | 0.449
32 | RRIRFRPPRLPRPRPRPIIPPRP | -0.677
33 | RRIRFRPPRLPRPRPRPIISPRP | -0.332
34 | RRIRFRPPRLPRPRPRPIKDPRP | -0.234
35 | RRIRFRPPRLPRPRPRPIKFPRP | -0.587
36 | RRIRFRPPRLPRPRPRPIKLPRP | -0.825
37 | RRIRFRPPRLPRPRPRPIKNPRP | -0.514
38 | RRIRFRPPRLPRPRPRPIKPPRP | -0.4
39 | RRIRFRPPRLPRPRPRPIKQPRP | -0.0488
40 | RRIRFRPPRLPRPRPRPIKVPRP | -0.379
41 | RRIRFRPPRLPRPRPRPILCPRP | -0.192
42 | RRIRFRPPRLPRPRPRPILGPRP | 0.0151
43 | RRIRFRPPRLPRPRPRPILSPRP | -0.101
44 | RRIRFRPPRLPRPRPRPIMCPRP | -0.273
45 | RRIRFRPPRLPRPRPRPIRTPRP | -0.0861
46 | RRIRFRPPRLPRPRPRPISGPRP | 0.00212
47 | RRIRFRPPRLPRPRPRPITMPRP | -0.503
48 | RRIRFRPPRLPRPRPRPITQPRP | -0.278
49 | RRIRFRPPRLPRPRPRPIVRPRP | -0.0797
50 | RRIRFRPPRLPRPRPRPIWDPRP | -0.319

Row | Sequence | shrunken log2 fold change
51 | RRIRFRPPRLPRPRPRPIYYPRP | -1.24
52 | RRIRFRPPRLPRPRPRPKCHPRP | -0.42
53 | RRIRFRPPRLPRPRPRPKEHPRP | -0.357
54 | RRIRFRPPRLPRPRPRPKELPRP | -0.127
55 | RRIRFRPPRLPRPRPRPKEMPRP | -0.0141
56 | RRIRFRPPRLPRPRPRPKEWPRP | -0.00364
57 | RRIRFRPPRLPRPRPRPKLLPRP | 0.0539
58 | RRIRFRPPRLPRPRPRPKNHPRP | -0.347
59 | RRIRFRPPRLPRPRPRPKPAPRP | 0.739
60 | RRIRFRPPRLPRPRPRPKPGPRP | 0.446
61 | RRIRFRPPRLPRPRPRPKQAPRP | -0.0316
62 | RRIRFRPPRLPRPRPRPKQHPRP | -0.176
63 | RRIRFRPPRLPRPRPRPKQIPRP | -0.218
64 | RRIRFRPPRLPRPRPRPKQYPRP | -0.43
65 | RRIRFRPPRLPRPRPRPKSTPRP | -0.3
66 | RRIRFRPPRLPRPRPRPKTFPRP | -0.18
67 | RRIRFRPPRLPRPRPRPKTPPRP | 0.207
68 | RRIRFRPPRLPRPRPRPKWMPRP | -0.235
69 | RRIRFRPPRLPRPRPRPLADPRP | -0.0773
70 | RRIRFRPPRLPRPRPRPLAEPRP | -0.0472
71 | RRIRFRPPRLPRPRPRPLAGPRP | -0.104
72 | RRIRFRPPRLPRPRPRPLCGPRP | -0.154
73 | RRIRFRPPRLPRPRPRPLCIPRP | -0.571
74 | RRIRFRPPRLPRPRPRPLCWPRP | 0.135
75 | RRIRFRPPRLPRPRPRPLDIPRP | -0.267
